Data taken from patent US20040127682A1.

Legend:
[1] = molecular target: human CD3 (CD3 epsilon of the T-cell receptor complex) on Jurkat cells (human) (UniProt P07766); experiment: competition with 125I-UCHT1 tracer on Jurkat cells; competitor at 1 nM
[2] = molecular target: human CD3 (CD3 epsilon of the T-cell receptor complex) on Jurkat cells (human) (UniProt P07766); experiment: competition with 125I-UCHT1 tracer on Jurkat cells; competitor at 100 nM

Sequence of UniProt P07766 (P07766 23-207, one chain of several): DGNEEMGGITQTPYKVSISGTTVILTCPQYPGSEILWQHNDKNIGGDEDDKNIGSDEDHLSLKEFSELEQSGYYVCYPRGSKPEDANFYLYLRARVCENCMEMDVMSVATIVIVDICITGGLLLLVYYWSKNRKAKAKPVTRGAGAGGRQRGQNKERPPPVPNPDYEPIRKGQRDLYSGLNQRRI

% of 125I-UCHT1 bound to cells [1]: 80%
% of 125I-UCHT1 bound to cells [2]: 0%
Substance: scUCHT1
